Measured values from the nanobody polyreactivity screen of Harvey et al. (2022).

Assay: yeast display, Sf9 membrane polyspecificity reagent, FACS + sequencing; frameworks hold sequencing errors
How it was run: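 Galactose-induced (36–48 hours) yeast carrying a synthetic nanobody display library were exposed to 10% biotinylated, detergent-solubilized Sf9 membrane reagent at 4 °C for 1 hour. FACS followed streptavidin microbead enrichment, using low and high (top ~1%) gates for expression (anti-HA) and reagent binding (streptavidin). Colony PCR, MiSeq 2 × 250 sequencing and CDR-length filtering followed. Labels for polyreactivity reflect the gate of origin.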

## QVQLVESGGGLVQAGGSLRLSCAASGSIFPSNVMGWYRQAPGKERELVAAISTTGSTYYADSVKGRFTISRDNAKNTVYLQMNSLKTEDTAVYDCAAEYWSYAHGGQLYGYDYWGQGTQVTVSS
  polyreactivity (PSR sort gate): low polyreactivity

## QVQLVESGGGLVQAGGSLRLSCAASGSIFPVYAMGWYRPAPGKERELVAAISWIGGGTYYADSVKGRFTISRDNAKNTVYLQKHSLKPEDTAVYDCAAVPYTSEYDYWGQGTEVTVSS
  polyreactivity (PSR sort gate): high polyreactivity

## QVQLVESGGGLVQAGGSLRLSCAASGSIFPVYAMGWYRQAPGKEREFVARIRFSGGRTYYADSVKGRFTISRDNAKNTVYLQMNSLKPEDTAVYYCAKAQYRGRYGYWGQGTQVTVSS
  polyreactivity (PSR sort gate): high polyreactivity

## QVQLVESGGGLVQAGGSLRLSCAASGSIFPVYAMGWYRQAPGKERELVATIRSGGARTYYADSVKGRFTISRDNAKNTVYLQMNSLKPEDTAVYYCAVDQSRWQARYYYWGQGTQVTVSS
  polyreactivity (PSR sort gate): high polyreactivity

## QVQLVESGGGLVQAGGSLRLSCAASGSIFPVYTMGWYRQAPGKEREFVATITISGAITYYADSVKGRFTISRDNAKNSVYLQMNSLKPEDTAVYYCNTGPISYPANDYWGQGTQVTVSS
  polyreactivity (PSR sort gate): low polyreactivity

## QVQLVESGGGLVQAGGSLRLSCAASGSIFPVYTMGWYRQAPWKERELVAAITKTGGSTYYADSVKGRFTISRDNAKNTVYLQMNILIPEDTAVYYCAKPATYYELDYWGQGTQVNVSS
  polyreactivity (PSR sort gate): low polyreactivity

## QVQLVESGGGLVQAGGSLRLSCAASGSIFPWNAMGWYRQAPGKERELVAAISRGGSTNYADSVKGRFTISRDNAKNTVYLQMNSLKPEDTAVYYCAVYYYSYHWGRGYDYWGQGTQVTVSS
  polyreactivity (PSR sort gate): high polyreactivity

## QVQLVESGGGLVQAGGSLRLSCAASGSIFPYNAMGWYRQAPGKERELVATISSGGSTNYADSVKGRFTISRDNAKNTVYLQMKSLKPADTAVYYCAADVIVFFSAPNYWGDIEYGYWGQGTQVTVSS
  polyreactivity (PSR sort gate): low polyreactivity

## QVQLVESGGGLVQAGGSLRLSCAASGSIFPYNAMGWYRQAPGKERELVATISSGGSTNYADSVKGRFTISRDNAKNTVYLQMNSLKPEDTAVYYCAADVIVFYYAPNYWVDIEYGYWGQGTQVTVSS
  polyreactivity (PSR sort gate): low polyreactivity

## QVQLVESGGGLVQAGGSLRLSCAASGSIFPYNAMGWYRQERGNERELVAAISISGGSTYYADSVKGRFTISRDNAKNTVYFQMNSLKPEDTAVYYCAARQTLSSAFDYWGQGTQVTVSS
  polyreactivity (PSR sort gate): low polyreactivity

## QVQLVESGGGLVQAGGSLRLSCAASGSIFPYVNAMGWYRQAPGKERELVASIPGGGGTKYADSVKGRFTISRDNAKNTVYLQMNSLKPEDTAVYYCNATSGNPASTARMNYWGQGTQVTVSS
  polyreactivity (PSR sort gate): low polyreactivity

## QVQLVESGGGLVQAGGSLRLSCAASGSIFPYYAMGWYRQAPGKERELVAAISDSGDSTYYADSVKGRFTISRDNAKNTVYLQMNSLKPEDTAVYYCAADQTSSYYDPWGDYWGQGTQVTVSS
  polyreactivity (PSR sort gate): low polyreactivity

## QVQLVESGGGLVQAGGSLRLSCAASGSIFPYYAMGWYRQAPGKERELVAAISGSGGSTYYADSVKGRFTISRDNAKNTVYLQLNSLKPVDTAVYYCATADVYVYWYTSTDDYWGQGTQVTVSS
  polyreactivity (PSR sort gate): low polyreactivity

## QVQLVESGGGLVQAGGSLRLSCAASGSIFPYYAMGWYRQAPGKERELVAAISWSGTSTYYADSLKGRFTISRDNAKNTVYLQMNSLKPEDTAVYYCAASAVGTNHYGYWNESDYWGQGTQVTVSS
  polyreactivity (PSR sort gate): low polyreactivity

## QVQLVESGGGLVQAGGSLRLSCAASGSIFPYYAMGWYRQAPGQEREFVASISSVTSTYADSVKGRFTISRDNAKNTVYLQMNSQKPEDPAVYYCAADRAYSWYSVSRYNYWGQGTQVTVSS
  polyreactivity (PSR sort gate): low polyreactivity

## QVQLVESGGGLVQAGGSLRLSCAASGSIFPYYTMGWYRQAPGKERELVAAINYSGASTYYADSVKGRFTISRDNAKNTVYLQMNSLKPEDTAVYYCAADYPPLYRKYVYWGQGTQVTVSS
  polyreactivity (PSR sort gate): low polyreactivity

## QVQLVESGGGLVQAGGSLRLSCAASGSIFPYYVMGWYRQAPGKERELVAAISTSDGSTYADSVKGRFTISRDNAKNTVYLQMNSLKPEDTAVYYCAVANVYYEGYDYWGQGTQVTVSS
  polyreactivity (PSR sort gate): low polyreactivity

## QVQLVESGGGLVQAGGSLRLSCAASGSIFQAYVMGWYRQAPGKERELVATIDRRGGITYYADSVKGRFTISRDNAKNTVYLQMNSLKPEDTAVYYCATRTRLAQYSRGRYRYDYWGQGTQVTVSS
  polyreactivity (PSR sort gate): high polyreactivity

## QVQLVESGGGLVQAGGSLRLSCAASGSIFQFYTMGWYRQAPGKERELVAAISSGGTRRYYADSVKGRFTISRDNAKNTVYLQMNSLKPEDTAVYYCAAPWSSSWSGVRTRMGYWGQGTQVTVSS
  polyreactivity (PSR sort gate): high polyreactivity

## QVQLVESGGGLVQAGGSLRLSCAASGSIFQGNAMGWYRQAPGKERDLVAAISGGDSTNYADSVKGRFTISRDNAKNNVYLQMNSLKPEDTAVFYCNALSHWAPASYEYDYWGQGTQVTVSS
  polyreactivity (PSR sort gate): low polyreactivity

## QVQLVESGGGLVQAGGSLRLSCAASGSIFQGNVMGWYRPAPGKERELVAAISYSGDSTYYADSVKGRFTISRDNAKNTVYLQMNRLKPEDSAVYYCYAYRNRYGYRTSSRRYGYWGQGTQVTVSS
  polyreactivity (PSR sort gate): high polyreactivity

## QVQLVESGGGLVQAGGSLRLSCAASGSIFQGYAMGWYRKAPGKERELVAAITSSGGSTRYADSVKGRFTISRDNAKNTVYLQMNSLKPEDTAVYYCAARYKWPYDYWGQGTQVTVSS
  polyreactivity (PSR sort gate): high polyreactivity

## QVQLVESGGGLVQAGGSLRLSCAASGSIFQHYAMGWYRQAPGKEREFVAAISGRGGGTYYADSVKGRFTISRDNAKNTVYLQMNSLKPEDTAVYYCAADYRGSYWRYYYWGQGTQVTVSS
  polyreactivity (PSR sort gate): high polyreactivity

## QVQLVESGGGLVQAGGSLRLSCAASGSIFQIVYAMGWYRQAPGKERELVAAISRGGSTYYADSVKGRFTISRDNAKNTVYLQMNSLKPEDTAVYYCAADIVELSPRGVYHFDYWGQGTQVTVSS
  polyreactivity (PSR sort gate): high polyreactivity

## QVQLVESGGGLVQAGGSLRLSCAASGSIFQKYAMGWYRPAPGKERELVAAITSSGSTNYADSVKGRFTISRDNAKNTVYLQMNSLKPEDTAVYYCAADRYAGYYSWYYPLWSSKDDYWGQGTQVTVSS
  polyreactivity (PSR sort gate): low polyreactivity

## QVQLVESGGGLVQAGGSLRLSCAASGSIFQKYTMGWYRQAPGKERELVAAITRSGGSTYYADSVKGRFTISRDNAKNTVYLQMNSLKPEDSAVYYCNKRYIPWAYDYWGQGTQVTVSS
  polyreactivity (PSR sort gate): high polyreactivity

## QVQLVESGGGLVQAGGSLRLSCAASGSIFQQYDRGWYRQAPGKDREFVAAISSSGGSTYYADSVKGRFTISRDNAKNTDYLQMKSLKAEDSAVYYCAVDTIGYTYVDYLHGSGEFGYWGQGTQVTVSS
  polyreactivity (PSR sort gate): low polyreactivity

## QVQLVESGGGLVQAGGSLRLSCAASGSIFQRNAIGWSRQAPGKERELVAAITTTGGITHYADSVKGRFTISRDNAKNTVYLQMNSLKPEDTAVYYCAASNEVPWRFPDDYWGQGTQVTVSS
  polyreactivity (PSR sort gate): low polyreactivity

## QVQLVESGGGLVQAGGSLRLSCAASGSIFQRNAMGWYRQAPGKERELVASISFSDGTTYYADSVKGRCTISRDNAKNTVYLQMNSLKPEDTAVYYCAKKAIVSDQWDKYDYWGQGTQVTVSS
  polyreactivity (PSR sort gate): low polyreactivity

## QVQLVESGGGLVQAGGSLRLSCAASGSIFQVNAMGWYRQAPGKERELVASITTSGGSTYYADSVKGRFTISRDNAKNTVYLQMNSLKPEDTAVYYCAADHWSQDYDYWGQGTQVTVSS
  polyreactivity (PSR sort gate): low polyreactivity

## QVQLVESGGGLVQAGGSLRLSCAASGSIFQWYAMGWYRQAPGKERELVAVISRGGRTNYADSVKGRFTISRDNAKNTVYLQMNSLKPEDTAVYYCAAAVWFERGFSYRWRYGYWGQGTQVTVSS
  polyreactivity (PSR sort gate): high polyreactivity

## QVQLVESGGGLVQAGGSLRLSCAASGSIFQYNAMGGSRQSPGEDRELVAAISRSGGSTYYADSVKGRFTNSRDNAKNTVYLQMNSLKPEDTAVYYCNAVLGYYSPYDYWVQGTQVTVSS
  polyreactivity (PSR sort gate): low polyreactivity

## QVQLVESGGGLVQAGGSLRLSCAASGSIFQYNAMGWYRQAPGKEREFVAAITRGGGTYYADSVKGRFTISRDNAKKTVYLQMNSLKPEDTAVYYCAAQSRTSYRFNYWGQGTQVTVSS
  polyreactivity (PSR sort gate): high polyreactivity

## QVQLVESGGGLVQAGGSLRLSCAASGSIFQYNAMGWYRQAPGKERELVAAINGGGSTYYADSVKGRFTISRDNAKNTVYLQMNSLKPEDTAVYYCAADGGAYSYRGPGKFGIEDSWGQGTQVTVSS
  polyreactivity (PSR sort gate): low polyreactivity

## QVQLVESGGGLVQAGGSLRLSCAASGSIFQYNVMGRYRQEPGKEREFVADISSSGGSTYYADSVKGRFTISRDNAKNTVYLQMNSLKPEATAVYYCNARSKVAYDRHYYWGQGTQVTVSS
  polyreactivity (PSR sort gate): low polyreactivity

## QVQLVESGGGLVQAGGSLRLSCAASGSIFQYVYAMGWYRQAPGKERELVATITWSGGTTYYADSVKGRFTISRDNAKNTVYLQMHSLKPEDTADYYCAAESIYYPVAQYYYSFEYWGQGTQVTVSS
  polyreactivity (PSR sort gate): low polyreactivity

## QVQLVESGGGLVQAGGSLRLSCAASGSIFQYYAMGWYRQAPGKERELVAAISSAGSTKYADSVKGRFTISRDNAKNTVYLQMNSLKPEDTAVYYCAARDPSRHARRAYDYWGQGTQVTVSS
  polyreactivity (PSR sort gate): low polyreactivity

## QVQLVESGGGLVQAGGSLRLSCAASGSIFQYYAMGWYRQAPGKERELVAVISFSDGSTYYADSVKGRFTISRDNAKNTVYLQMNSLKPEDTAVYYCARRRFSVSRRSYYWGQGTQVTVSS
  polyreactivity (PSR sort gate): high polyreactivity

## QVQLVESGGGLVQAGGSLRLSCAASGSIFRAYAMGWSRQAPGKERELVAAISIGGRTYYADSVKGRFTISRDNAKNTVYLQMNSLKPEDTAVYYCAAVRSYVKGGMYYWGQGTQVTVSS
  polyreactivity (PSR sort gate): low polyreactivity

## QVQLVESGGGLVQAGGSLRLSCAASGSIFRAYVMGWYRQAPGTERELVAAISRGGSTNYADSVKGRFTISRDNAKNTVFLQMNSLKPEDTAVYYCNAGRGLREDDYWGQGTQVTVSS
  polyreactivity (PSR sort gate): low polyreactivity

## QVQLVESGGGLVQAGGSLRLSCAASGSIFRDNVMGWYRQAPGKERELVAAITQRGGSTYYADSVKGRFTISRDNAKNTVYVQMNSLKPEDTAVYYCNARRYVLRYNRFYYWGQGTEVTVSS
  polyreactivity (PSR sort gate): high polyreactivity

## QVQLVESGGGLVQAGGSLRLSCAASGSIFRFNAMGWNRPAPGKERELVAAITSSGGSTYYADSVKGRFTISRDNAKNTVYLQMNSLKPEDTAVYYCAKRWLYPISYDYWGQGTQVTVSS
  polyreactivity (PSR sort gate): high polyreactivity

## QVQLVESGGGLVQAGGSLRLSCAASGSIFRFNAMGWYRQAPGKEREFVAAISSGGRTYYADSVKGRFTISRDNAKNTVYGQRNSLKPDDPAVYYCAALWHRRGSWFRQTGSGYDYWGQGTQVTVSS
  polyreactivity (PSR sort gate): high polyreactivity
